According to the DeepSol protein solubility set:

Assay: soluble on expression in E. coli; label from the status in PepcDB or PDB records

Sequence	soluble on expression in E. coli
MGSDKIHHHHHHMPEIHQSIAQHYHERTKYDPETIASKSQRLDWAKQPVPFKEYKIGSAIDLKPYLQETPEVFVNDTNGQWWQRLSRLLFRSYGLTARMPSMGNTVYLRAAPSAGGLYPAEVYVVSRGTPLLSPGLYNYQCRTHSLIHYWESDVWQSLQEACFWHPALESTQLAIIVTAVFYRSAWRYEDRAYRRICLDTGHLLGNIELSAAITDYRPHLIGGFIDEAVNDLLYIDPLQEGAIAVLPLADLLDIQQNISPGCTALPSATETNYPQVPDGELLKYFHHHTQISASITGKLNLPTVIQEKSLEDKYNFPFCLKISTVSAPIYWGENLSDLEITMHKRRSTRAYNGEELTFDELKALLDFTYQPQNYIDQSLDNSPDYFDLNLIETFIAVCGVQGLEAGCYYYAPKAQELRQIRFKNFRRELHFLCLGQELGRDAAAVIFHTSDLKSAIAQYGDRVYRYLHMDAGHLGQRLNLAAIQLNLGVSGIGGFFDDQVNEVLGIPNDEAVIYITTLGRPR	not soluble
MNYHVYHSIDVVNGPGTRCTLFVSGCEHNCKGCYNKSTLNPNSGHLFTKELEDKIIADLNDTRIPRRGLSLSGGDPLHPMNCESVLKLVKRVKSECENKDIWMWTGYTLSELNPTQKEIVDLIDTLIDGRFEQDKADPSLDWRGSSNQIIHTFNVLLEHHHHHH	not soluble
MSLDNTEQEKFETYDLDVETVYCRPIIKFPLLLIHAYRVYLALNDHNDIEPRLHSDRLLEIFDPLINGDEQSVKLFIETLWQVRYQFDRWVVKWVERDDATDAQLGLTYQSRSKSNDTYYINRTQKELTDIVLLQSVRNFTGERSAQYWLTPFLSGLIRSSIKQDSVALELLENIDNKMSLSVDTQKEASFALAEGIEPNCQSWQSQSTYFAKSLGTSFEHYWFQKLEYLIWKKMKASESSLPSEELNKFKKYRITSKNSVEHVHPQNDEYNSRLDCETLNSFGNLVLLSPGENSSYSNQDVDKKRIDFERKSHFDALKLREIFGVKGQGLWGKQQIDNHLEDMMAVFAQHYKEGHHHHHH	not soluble
MSLFTFKKGLHLPYNKEFTKDKSIEIFKPKKELIFPLSQHIGAPCEPIVEVGQKVLVNEKIADSSAFVSSPIHSSVSGTIKDIREIQSINGSNTQAIIIENDSKYEKYPKENLKYSSKLSLKDVVKLVKDYGIVGLGGATFPCHVKLNVKEDKEIKYIIINAAECEPYLTCDHRVMLEYTEEIIGGLRILLELFPKALIYIGIEDNKLNAIDKFKSILGEDNKIKVMPLKSKYPQGSEKHLIYALTKLQVPSGKLPLDIGCIAFNVSTIYQLYASLINGLPLTERIITVTGDSIRSPKNLRVKIGTQVKDIIEFCGGFINKPNKIILGGPMMGTSVNSLDLPITKGTSGILCLSKVDTSPNSHCIRCGKCLNSCPMNLIPQKLNELALKDKFDEFEFLGGMDCLECGCCTFSCPAKISIVNNIRNAKKSLRNKSKNLEHHHHHH	soluble
MAHHHHHHMGTLEAQTQGPGSMKQPTAVIFDWYNTLIDTSINIDRTTFYQVLDQMGYKNIDLDSIPNSTIPKYLITLLGKRWKEATILYENSLEKSQKSDNFMLNDGAIELLDTLKENNITMAIVSNKNGERLRSEIHHKNLTHYFDSIIGSGDTGTIKPSPEPVLAALTNINIEPSKEVFFIGDSISDIQSAIEAGCLPIKYGSTNIIKDILSFKNFYDIRNFICQLINI	soluble
MAHHHHHHMDINNIMEEVQAIKVLPHMMFNASKLKVLSDYVNVAFENNEYYDNDVMLTLLRLFCLYPHCYDKDIIKKILICVLYNINNVDMNMYMSLINSSLYDDNIKSVIYIYELIKNCQYKKLWNCINNNIGNEYNNCDYSYLKNDKNFICNIRKYILNTISISFESIYLKNMSEYLNIQDNTQLEQFLNENKWTIKMINHKGKDEQICYNGNIETVQNKKNINTYFTEDNIGSYITKLNH	not soluble
MSLAAHYLDFERPIADLESKIEELSRLSETAGPGAFDTEIQALRDRAQELRKEAYANLDAWQKTMVARHPQRPHLRDYVAGLIDEFVELRGDRKFADDQAIVGGLGRFRGQPVVVMGHEKGHDTTTRLKHNFGMARPEGYRKAVRLMDMAERFNLPVITFVDTAGAYPGLGAEERGQAEAIARSTERCLTLGVPMVATIVGEGGSGGAIALAGANRVLILEHSIYSVISPEGAASILWRDGARAKDAATQMRITAQDLIKLGIVDRIVEEPAGGAHSDTEAAIQAVGDAVEDELKAMAAMSPAELKKQRSDRFYAIGREGHHHHHH	soluble
MGSDKIHHHHHHMLNTKDKQPILLIIFGQKMKEYDDLIRSTVERLSKRDRPVSILISKELNHVIHHYDAQFENLETLVGYINTHEDSLIYPLCLDKNHELFQEFLAWQSHYSRQYISDNLSEKSVQAIDNNQDFVQVDCLVMRDSLNNCLYVSDLEYIESNKTTGKSLAIVPSQTLSDAARQTIRDVAFDVCRKANIIGVCYFSFLIDLNSLDYHIISLSSGLSHQSILFETITTYPVLEIATKLTVGYTFSQLKHSYYPNTSAFLEPQLDYVATVSFSFEKVDYIFFARNIEQLFLNLLEASSHDHFPFLSDISEEDLMFALIQKKENRLAYLLEAFRRGFDLYDLSSVTKINPFYLDKCLHIVELYENLNKSQYNVDIYKEAKRYGFSDDYIASSWQISLIDMLEYRKKHSVAPVLKQVEQSSGVLTGHQIQYFRSYDWHSDYISSGCQKALIMVDKGYSLVKLNELIKQIKQTHLELLIVTNQPLLIEQLNDTSIIFDTIGIETILTIMGIEEVEEVYLLGESQADMFSKMKNFSISCQSI	not soluble
MGSDKIHHHHHHMFLRNMWYVAAFSADVKPGKCLARTFLNEPVVLFRTASGSLGALIDRCSHRAMPLSEGHVDGDIIRCPYHGLEFNAAGVCAHIPGQERIPAAANVRSYPVSERDGLIWIWMGEPEKADLRSIMSNPEHRDPGWSWRPYYMHVNSNWQLLVDNILDLTHVAYIHANTIGGNPQTHFNADMSVQFDGEKVTLLRKMPNSVPPKTYVAAGGFKGNVDRWQMVEYRPCGGNVLRVNAGACEVGTGAYEGRRDNGFTLLNVHGVTPETETTTHYIWTICTDAPRESGVPDMLFDQFYETICEDERALEAQQRRINDMPDMRFVGIASDGAVSRARLLLERLHENETAVTS	not soluble
SRRRPLSCDAASQAGSNYPRCWNCGGPWGPGREDRFFCPQCRALQAPDPTRDYFSLMDCNRSFRVDTAKLQHRYQQLQRLVHPDFFSQRSQTEKDFSEKHSTLVNDAYKTLLAPLSRGLYLLKLHGIEIPERTDYEMDRQFLIEIMEINEKLAEAESEAAMKEIESIVKAKQKEFTDNVSSAFEQDDFEEAKEILTKMRYFSNIEEKIKLKKIPL	soluble
SGGGGGVLWDTPSPKEYKKGDTTTGVYRIMTRGLLGSYQAGAGVMVEGVFHTLWHTTKGAALMSGEGRLDPYWGSVKEDRLCYGGPWKLQHKWNGQDEVQMIVVEPGKNVKNVRTKPGVFKTPEGEIGAVTLDFPTGTSGSPIVDKNGDVIGLYGNGVIMPNGSYISAIVQGKRMDEPIPAGFEPEMLGSRSHHHHHH	soluble
GFVEPHVHPLIASIMLPNEIIAPYDWVLPHTVKKGVQDHDSYLKAVTKSVNENANKDEVYFIWGYHQLWHGELNRDILNNISKDKPIAIIHRSFHEIFLNDAAISKLGIKKSDFANNPQVYWEKGHFYEGGWFALVPMMASELLAPKKYLQGLAMMSELVEKNGITTIGEPGFPSSSFDTEYTLLKQEMDTKPPFDIFLIPNGTQLYGMKGSNENALTFMNSLPEKYNTSNIQFLPKQVKLFADGAIYSQLMQMKDGYIDGHKGEWITPLALFQQQLDFYWDRDFKIHTHANGDLGIQEVMGFVSKAQKRTPRKDHRFTLHHMGYFDDTQAQQVADLQIDASVNPYYLWALADKYAEHGLGKERGENLVRMKSLTDRGVHLSFHSDFSMAPMEPLTLAWTAVNRITSQGSKFSQAQRLDMYTAMKAITIGAARVLSQEHKIGSIKKGKTANFTILAENPFKVEPIALKDIDIITTVFRGTLSKPLH	not soluble
MVNQQEEINLSVALVTRNRPDSLERCLKSLRDQKVQPFEVVVSDDSDDLYKSSTKEIAQKWGCRYIDGPKRGLYANRNYVALACYGTHIRTMDDDHEFPEQHIEVCLNAIQSDPSSIWIIGEYSPTSSIENAPHPCPGQLHPRGFSFYPKDTQNCWAIADGASIYPKKIFASGLRFVEYYKFGASYLEWGSRLYYLSYRIRHLDSTYIIHHFNPKARSFSDQEMDQSSRFFAMLCHSFLYQSTFKNKCLFSYEILKQFILDPKLTIKCIINSWSNFELFSRSFCALEHHHHHH	not soluble
TLTKHEQDILLKELGPHVDTPAHIVETGLGAYHALFTAHPQYISHFSRLEGHTIENVMQSEGIKHYARTLTEAIVHMLKEISNDAEVKKIAAQYGKDHTSRKVTKDEFMSGEPIFTKYFQNLVKDAEGKAAVEKFLKHVFPMMAAEI	soluble
SLKINQEEDTVSSEKNKLCDNNNNNNMVHTRHIYNVCELNKCLRENKLIPYNNIYKMKHLYLNILDTFDENILKHVNKAHLFIDSVIQKKKNILIHCMAGISRCSSIILSYVSKKNKKGIEYNFNLLKSKYPFAHPNENFYRQLLLYEKMNYTLDGCTDYHNIYK	soluble
MGSDKIHHHHHHMARHGKGPKTNKKKLAPEKERFIQCCADITLELTDSLTSGTTREINLNGLITKYSKKYKLKQQPRLTDIINSIPDQYKKYLLPKLKAKPVRTASGIAVVAVMCKPHRCPHIAYTGNICVYCPGGPDSDFEYSTQSYTGYEPTSMRAIRARYDPYEQARGRVEQLKQLGHSIDKVEYVLMGGTFMSLPKEYREDFIVKLHNALSGFNGNDIDEAILYSQQSLTKCVGITIETRPDYCTQTHLDDMLKYGCTRLEIGVQSLYEDVARDTNRGHTVRSVCETFAVSKDAGYKVVSHMMPDLPNVGMERDIEQFKEYFENPDFRTDGLKIYPTLVIRGTGLYELWKTGRYKSYSANALVDLVARILALVPPWTRIYRVQRDIPMPLVTSGVDNGNLRELALARMKDLGTTCRDVRTREVGIQEVHHKVQPDQVELIRRDYYANGGWETFLSYEDPKKDILIGLLRLRKASKKYTYRKEFTSQRTSIVRELHVYGSVVPLHSRDPRKFQHQGFGTLLMEEAERIAKEEHGSEKISVISGVGVRNYYGKLGYELDGPYMSKRI	not soluble
MAGDPMITETQLTAIQTYALQKLAHDHSGHGRDHLQRVNRLARRLAKDEGANLNLTLAAAWLHDVIDDKLMANPAKAHQDLIVQLNAQNVTADDQTAIFAIIDHMSFSKSFNGPQKLSLEGQVVQDADRLDAIGAIGIARALYYSGHVGEKIYDPAIAPREHMTREQYRHQPGTAINHFYEKLFKLAALMNTDTAKALAAHRTAVMHEFVDQFKAEWTADDKALEHHHHHH	soluble
QTVARKCSLTGEWDNDLGSIMTIGAVNDNGEFDGTYITAVADNPGNITLSPLLGIQHKRASQPTFGFTVHWNFSESTSVFVGQCFVDRSGKEVLKTKWLQRLAVDDISDDWIATRVGNNDFTRQHTVEE	soluble
MDRLGSFSNDPSDKPPCRGCSSYLMEPYIKCAECGPPPFFLCLQCFTRGFEYKKHQSDHTYEIMTSDFPVLDPSWTAQEEMALLEAVMDCGFGNWQDVANQMCTKTKEECEKHYMKYFINNPLFASTLLNLKQAEEAKTADTAIPFHSTDDPPRPTFDSLLSRDMAGYMPARADFIEEFDNYAEWDLRDIDFVEDDSDILHALKMAVVDIYHSRLKERQRRKKIIRDHGLINLRKFQLMERRYPKEVQDLYETMRRFARIVGPVEHDKFIESHACRWFLSLEQYLCVYIYINRRDNGVFYVKFYK	soluble
MTDIIIVHSKHGNSKNHWYEWLRHNLTLEGYDVSLFNLEANDHAQIDEWVNEMKQQLHIRKKDTYFVTHGFGSIAALKFLEETHHHIEGFFSIAGFKEDAQDIDEDVDLKGVTIDYDKIKEQVDKFYGLTSKDDQYVSYKETQRLMNSLNGHTRVVEDGGHFLEEEGFVTFTSLINRMQGYMTRLEHHHHHH	not soluble
